{
  "source": "patent WO2017175058A1",
  "about": "(dated 2017)",
  "binders": {"B1": {"name": "VSTB53 (antibody, human IgG1, V domains shown)", "VH": "QVQLVQSGAEVKKPGASVKVSCKASGYTFTHYTIHWVRQAPGQGLEWMGYIIPSSGYSEYNQKFKDRVTMTRDTSTSTVYMELSSLRSEDTAVYYCARGAYDDYYDYYAMDYWGQGTLVTVSS", "VL": "DIVMTQSPLSLPVTPGEPASISCRSSQTIVHSNGNTYLEWYLQKPGQSPQLLIYKVSNRFSGVPDRFSGSGSGTDFTLKISRVEAEDVGVYYCFQASHVPWTFGQGTKLEIK"}, "B2": {"name": "VSTB95 (antibody, human IgG1, V domains shown)", "VH": "EVQLVESGGGLVQPGGSLRLSCAASGFTFRNYGMSWVRQAPGKGLEWVASIISGGSYTYYPDSVKGRFTISRDNAKNSLYLQMNSLRAEDTAVYYCARIYDHDGDYYAMDYWGQGTTVTVSS", "VL": "DIVMTQSPLSLPVTPGEPASISCRSSQSIVHSNGNTYLEWYLQKPGQSPQLLIYKVSNRFSGVPDRFSGSGSGTDFTLKISRVEAEDVGVYYCFQGSHVPWTFGQGTKLEIK"}, "B3": {"name": "VSTB50 (antibody, human IgG1, V domains shown)", "VH": "QVQLVQSGSELKKPGASVKVSCKASGYTFTNYGLNWVRQAPGQGLEWMGWINPYTGEPTYADDFKGRFVFSLDTSVSTAYLQICSLKAEDTAVYYCAREGYGNYIFPYWGQGTLVTVSS", "VL": "DIVMTQTPLSLSVTPGQPASISCRASESVDTYANSLMHWYLQKPGQPPQLLIYRASNLESGVPDRFSGSGSGTDFTLKISRVEAEDVGVYYCQQTNEDPRTFGQGTKLEIK"}, "B4": {"name": "VSTB116 (antibody, V domains shown)", "VH": "QVQLVQSGAEVKKPGSSVKVSCKASGGTFSSYAISWVRQAPGQGLEWMGGIIPIFGTANYAQKFQGRVTITADESTSTAYMELSSLRSEDTAVYYCARSSYGWSYEFDYWGQGTLVTVSS", "VL": "DIQMTQSPSSLSASVGDRVTITCRASQSINTNLNWYQQKPGKAPKLLIYAASSLQSGVPSRFSGSGSGTDFTLTISSLQPEDFATYYCQQARDTPITFGQGTKVEIKR"}},
  "data": [
    {"target": "T1, human VISTA on the surface of cells (human, UniProt Q9H7M9 33-295)", "T1 sequence": "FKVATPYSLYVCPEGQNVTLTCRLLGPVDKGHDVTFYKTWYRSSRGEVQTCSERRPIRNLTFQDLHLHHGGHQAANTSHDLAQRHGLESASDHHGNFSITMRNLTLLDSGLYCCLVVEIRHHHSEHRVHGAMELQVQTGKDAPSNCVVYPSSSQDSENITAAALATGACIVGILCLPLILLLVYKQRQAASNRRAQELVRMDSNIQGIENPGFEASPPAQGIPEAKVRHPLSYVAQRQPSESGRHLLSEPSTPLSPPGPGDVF", "assay": "cell-based or functional assay", "values": [
      {"binder": "B1", "IC50, CPM (proliferation), SEB assay": "-1.06 log10 of antibody concentration", "IC50, Gamma (IFN-g), SEB assay": "-1.05 log10 of antibody concentration"},
      {"binder": "B2", "IC50, CPM (proliferation), SEB assay": "-1.12 log10 of antibody concentration", "IC50, Gamma (IFN-g), SEB assay": "0.05 log10 of antibody concentration"},
      {"binder": "B3", "IC50, CPM (proliferation), SEB assay": "-0.74 log10 of antibody concentration", "IC50, Gamma (IFN-g), SEB assay": "1.69 log10 of antibody concentration"},
      {"binder": "B4", "IC50, CPM (proliferation), SEB assay": "-1.44 log10 of antibody concentration", "IC50, Gamma (IFN-g), SEB assay": "-0.35 log10 of antibody concentration"}
    ]}
  ]
}
